Data on 2 substances can be found in paper PMC3349753.

For the assay, the target named is Myc-tagged full-length FGD4 (FYVE, RhoGEF and PH domain-containing 4) (human) (UniProt Q96M96).
UniProt Q96M96, sequence (Q96M96 whole entry, the tested form may be a part): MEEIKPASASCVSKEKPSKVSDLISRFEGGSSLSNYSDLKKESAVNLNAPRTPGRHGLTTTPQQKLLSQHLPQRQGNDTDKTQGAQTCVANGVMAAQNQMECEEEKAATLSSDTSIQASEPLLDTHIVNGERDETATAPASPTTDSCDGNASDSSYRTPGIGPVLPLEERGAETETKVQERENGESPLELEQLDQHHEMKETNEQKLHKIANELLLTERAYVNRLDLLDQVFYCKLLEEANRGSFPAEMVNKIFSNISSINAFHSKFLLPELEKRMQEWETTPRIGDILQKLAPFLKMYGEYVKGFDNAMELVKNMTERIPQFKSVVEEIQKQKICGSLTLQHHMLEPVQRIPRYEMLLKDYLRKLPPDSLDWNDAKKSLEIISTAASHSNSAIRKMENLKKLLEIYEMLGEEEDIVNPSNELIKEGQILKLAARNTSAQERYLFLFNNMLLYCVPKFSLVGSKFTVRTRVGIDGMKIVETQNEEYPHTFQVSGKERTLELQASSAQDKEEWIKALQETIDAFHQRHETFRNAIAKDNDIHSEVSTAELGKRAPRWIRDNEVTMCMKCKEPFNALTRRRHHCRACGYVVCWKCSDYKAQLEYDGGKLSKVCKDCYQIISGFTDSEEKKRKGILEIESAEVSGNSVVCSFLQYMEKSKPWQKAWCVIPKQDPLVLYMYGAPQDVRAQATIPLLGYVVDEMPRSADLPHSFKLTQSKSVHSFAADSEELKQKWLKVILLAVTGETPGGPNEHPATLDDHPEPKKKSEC

The substance “Flag-CD40CT chimera: the entire transmembrane region of LMP1 (aa 1–177) replaced with that of CD40 (aa 1–214) (from UniProt P25942 21-214; P03230 178-386)” returned a level of active Cdc42 (GST-CBD pull-down from NPC-TW01 lysates) on co-expression of FGD4 with CD40CT, compared with expression of FGD4 alone: did not promote Cdc42 activation of 1.1 fold.

Substance “Flag-tagged full-length latent membrane protein 1 (LMP1) (from UniProt P03230 1-386) (natural protein)” gave a level of active Cdc42 (GST-CBD pull-down from NPC-TW01 lysates) on co-expression of Myc-FGD4 with LMP1, compared with expression of FGD4 alone of 1.8 fold.
